Series [1] deals with T1, JCV T-ag OBD wt (JC virus (JCV), UniProt P03072 132-261).
T1 sequence: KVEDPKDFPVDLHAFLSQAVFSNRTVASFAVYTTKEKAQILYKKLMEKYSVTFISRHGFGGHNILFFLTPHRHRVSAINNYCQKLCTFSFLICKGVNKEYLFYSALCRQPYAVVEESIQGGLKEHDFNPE
The experiment in a line: ITC; ITC: 10 mM Na phosphate pH 7.0, 50 mM NaCl, 5 mM DTT; anisotropy: 20 mM Hepes pH 7.4, 50 mM NaCl, 0.01% NP40, 0.1 mM DTT, 15 nM probe; temperature not stated. Conditions: protein: recombinant; tags: expressed from pGEX1λT (GST vector).

The target in series [2] is T1, JCV T-ag OBD wt. The experiment in a line: fluorescence anisotropy; ITC: 10 mM Na phosphate pH 7.0, 50 mM NaCl, 5 mM DTT; anisotropy: 20 mM Hepes pH 7.4, 50 mM NaCl, 0.01% NP40, 0.1 mM DTT, 15 nM probe; temperature not stated. Particulars: protein: recombinant; tags: expressed from pGEX1λT (GST vector); label: 5' fluorescein (six-carbon linker) on one strand. For orientation: Fluorescence polarisation rises when a labelled molecule tumbles more slowly, as on binding a larger partner.

The Kd is a measure of binding affinity in units of concentration.

B1: Site II duplex, four GAGGC pentanucleotides (dsDNA)
DNA 1: TACAGGAGGCCGAGGCCGCCTCCGCCTCCAAGC
DNA 2: GCTTGGAGGCGGAGGCGGCCTCGGCCTCCTGTA
B1: the Kd with JCV T-ag OBD wt [1] is 172 nM.

B2: TBS probe, single GAGGC (dsDNA)
DNA 1: CCGAGGCCATTCTGAGAATTGAGC
DNA 2: GCTCAATTCTCAGAATGGCCTCGG
For B2, the Kd with JCV T-ag OBD wt [2] was 93 ± 21 nM.
